# In patent US20140087995A1 (published 2014):
# Numbered stars: 1 amine (or outer) side, 2 acyl side, 3 side chain; on linkers, the order of the positions; unused ones are H or OH. Bridge positions count the residues as written; N and C are the ends. Side chains are listed from the residue outwards. Ends that are not written are not given here. * marks the point of attachment. C20 diacid = O=C(O)CCCCCCCCCCCCCCCCCCC(=O)*; γGlu = O=C(O)[C@H](CCC(=O)[*:2])N[*:1]
# T1: human amylin receptor (amylin 3(a) receptor: human calcitonin receptor plus RAMP-3) (human, UniProt P30988 25-474; O60896 24-148, limits assumed)
# T1 sequence (looked up) 1: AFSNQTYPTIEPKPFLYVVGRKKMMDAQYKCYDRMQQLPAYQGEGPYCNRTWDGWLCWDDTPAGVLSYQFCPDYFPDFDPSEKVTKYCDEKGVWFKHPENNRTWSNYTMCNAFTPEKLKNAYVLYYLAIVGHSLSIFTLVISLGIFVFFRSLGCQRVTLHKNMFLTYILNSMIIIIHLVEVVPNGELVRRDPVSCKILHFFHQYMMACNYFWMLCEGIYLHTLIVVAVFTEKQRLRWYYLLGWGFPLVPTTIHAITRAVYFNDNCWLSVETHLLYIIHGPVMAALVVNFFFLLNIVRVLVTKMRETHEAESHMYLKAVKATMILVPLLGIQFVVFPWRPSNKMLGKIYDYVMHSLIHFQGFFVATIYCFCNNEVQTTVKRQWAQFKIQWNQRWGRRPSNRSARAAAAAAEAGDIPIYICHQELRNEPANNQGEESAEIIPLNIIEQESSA
# T1 sequence (looked up) 2: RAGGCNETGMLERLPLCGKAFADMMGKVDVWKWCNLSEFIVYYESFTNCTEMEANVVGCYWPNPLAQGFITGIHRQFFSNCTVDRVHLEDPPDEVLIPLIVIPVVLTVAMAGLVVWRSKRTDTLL
# T2: human calcitonin receptor (human, UniProt P30988 25-474)
# T2 sequence (looked up): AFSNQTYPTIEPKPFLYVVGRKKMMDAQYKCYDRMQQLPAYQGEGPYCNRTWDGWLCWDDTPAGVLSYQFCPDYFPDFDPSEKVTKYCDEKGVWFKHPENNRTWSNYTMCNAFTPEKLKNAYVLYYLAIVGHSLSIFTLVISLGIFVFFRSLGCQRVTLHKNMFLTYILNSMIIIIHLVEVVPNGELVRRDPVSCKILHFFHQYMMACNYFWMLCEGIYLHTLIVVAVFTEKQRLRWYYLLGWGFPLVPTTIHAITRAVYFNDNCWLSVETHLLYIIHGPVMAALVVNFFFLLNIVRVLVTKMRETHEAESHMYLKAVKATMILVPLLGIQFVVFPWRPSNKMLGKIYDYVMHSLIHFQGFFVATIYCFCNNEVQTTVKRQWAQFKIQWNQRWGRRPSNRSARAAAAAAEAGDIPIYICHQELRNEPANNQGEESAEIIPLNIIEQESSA
# What was measured:
# [1] = target: T1, human amylin receptor (amylin 3(a) …); assay: cell-based or functional assay
# [2] = target: T2, human calcitonin receptor; assay: cell-based or functional assay
Binder,Ratio hCT/hAmylin funct. [1] [ratio],hAmylin-R funct. EC50 [1] [nM],hCTR funct. EC50 [2] [nM]
"KCNTATCATQRLANFLRHSSPNFGAIPSSTNVGSNTY (C20 diacid-gGlu-2xOEG on the alpha amino group of the N-terminal residue; disulfide bridge Cys2-Cys7; C-terminal amide, Synthetic acylated analogue of human amylin; also called compound 24)",23.1,0.433,10
"KCNTATCATQRLANFLRHSSPNFGAIPSSTNVGRNTY (C20 diacid-gGlu on the alpha amino group of the N-terminal residue; disulfide bridge Cys2-Cys7; C-terminal amide, Synthetic acylated analogue of human amylin; also called compound 39) [N^α1-[(4S)-4-carboxy-4-(19-carboxynonadecanoylamino)butanoyl]-[Arg17,Pro21,Pro27,Arg34]-h-amylin]",11.6,0.217,2.52
"KCNTATCATQRLANFLRHSSPNFGAIPSSTNVGSETY (C20 diacid-gGlu on the alpha amino group of the N-terminal residue; disulfide bridge Cys2-Cys7; C-terminal amide, Synthetic acylated analogue of human amylin; also called compound 23) [N^α1-[(4S)-4-carboxy-4-(19-carboxynonadecanoylamino)butanoyl]-[Arg17,Pro21,Pro27,Glu35]-h-amylin]",8.9,0.34,3.02

# The remaining lines, values ahead:
Ratio hCT/hAmylin funct. [1] [ratio],hAmylin-R funct. EC50 [1] [nM],hCTR funct. EC50 [2] [nM],Binder
6.4,0.112,0.717,"{C20 diacid-γGlu}-KCNTATCATQRLAEFLRHSSPNFGAIPSSTPVGSNTY-NH2 (disulfide 2-7; SMILES CC[C@H](C)[C@H](NC(=O)[C@H](C)NC(=O)CNC(=O)[C@H](Cc1ccccc1)NC(=O)[C@H](CC(N)=O)NC(=O)[C@@H]1CCCN1C(=O)[C@H](CO)NC(=O)[C@H](CO)NC(=O)[C@H](Cc1c[nH]cn1)NC(=O)[C@H](CCCNC(=N)N)NC(=O)[C@H](CC(C)C)NC(=O)[C@H](Cc1ccccc1)NC(=O)[C@H](CCC(=O)O)NC(=O)[C@H](C)NC(=O)[C@H](CC(C)C)NC(=O)[C@H](CCCNC(=N)N)NC(=O)[C@H](CCC(N)=O)NC(=O)[C@@H](NC(=O)[C@H](C)NC(=O)[C@@H]1CSSC[C@H](NC(=O)[C@H](CCCCN)NC(=O)CC[C@H](NC(=O)CCCCCCCCCCCCCCCCCCC(=O)O)C(=O)O)C(=O)N[C@@H](CC(N)=O)C(=O)N[C@@H]([C@@H](C)O)C(=O)N[C@@H](C)C(=O)N[C@@H]([C@@H](C)O)C(=O)N1)[C@@H](C)O)C(=O)N1CCC[C@H]1C(=O)N[C@@H](CO)C(=O)N[C@@H](CO)C(=O)N[C@H](C(=O)N1CCC[C@H]1C(=O)N[C@H](C(=O)NCC(=O)N[C@@H](CO)C(=O)N[C@@H](CC(N)=O)C(=O)N[C@H](C(=O)N[C@@H](Cc1ccc(O)cc1)C(N)=O)[C@@H](C)O)C(C)C)[C@@H](C)O, Synthetic acylated analogue of human amylin; also called compound 31)"
8.4,0.313,2.62,"KCNTATCATQRLANFLRHSSPNFGAIPSSTNVGSKTY (C20 diacid-gGlu on the alpha amino group of the N-terminal residue; disulfide bridge Cys2-Cys7; C-terminal amide, Synthetic acylated analogue of human amylin; also called compound 34) [N^α1-[(4S)-4-carboxy-4-(19-carboxynonadecanoylamino)butanoyl]-[Arg17,Pro21,Pro27,Lys35]-h-amylin]"
–,–,14.1,"K([γGlu-γGlu-C20 diacid])CNTATCATQRLADFLRHSSPNFGAIPSSTNVGSRTY-NH2 (disulfide 2-7; N-terminus assumed; SMILES CC[C@H](C)[C@H](NC(=O)[C@H](C)NC(=O)CNC(=O)[C@H](Cc1ccccc1)NC(=O)[C@H](CC(N)=O)NC(=O)[C@@H]1CCCN1C(=O)[C@H](CO)NC(=O)[C@H](CO)NC(=O)[C@H](Cc1c[nH]cn1)NC(=O)[C@H](CCCNC(=N)N)NC(=O)[C@H](CC(C)C)NC(=O)[C@H](Cc1ccccc1)NC(=O)[C@H](CC(=O)O)NC(=O)[C@H](C)NC(=O)[C@H](CC(C)C)NC(=O)[C@H](CCCNC(=N)N)NC(=O)[C@H](CCC(N)=O)NC(=O)[C@@H](NC(=O)[C@H](C)NC(=O)[C@@H]1CSSC[C@H](NC(=O)[C@@H](N)CCCCNC(=O)CC[C@H](NC(=O)CC[C@H](NC(=O)CCCCCCCCCCCCCCCCCCC(=O)O)C(=O)O)C(=O)O)C(=O)N[C@@H](CC(N)=O)C(=O)N[C@@H]([C@@H](C)O)C(=O)N[C@@H](C)C(=O)N[C@@H]([C@@H](C)O)C(=O)N1)[C@@H](C)O)C(=O)N1CCC[C@H]1C(=O)N[C@@H](CO)C(=O)N[C@@H](CO)C(=O)N[C@H](C(=O)N[C@@H](CC(N)=O)C(=O)N[C@H](C(=O)NCC(=O)N[C@@H](CO)C(=O)N[C@@H](CCCNC(=N)N)C(=O)N[C@H](C(=O)N[C@@H](Cc1ccc(O)cc1)C(N)=O)[C@@H](C)O)C(C)C)[C@@H](C)O, Synthetic acylated analogue of human amylin; also called compound 52)"
